In patent US20230192897A1 (NUMAB THERAPEUTICS, published 2023):
Where a chain is given by its changes, count along the chain named. One block for each binder: values may come before it.

How the values were obtained:
Fc tagged human PDL1 = biological target: T1, Fc tagged human PDL1 (human, UniProt Q9NZQ7 19-239); test: SPR
T1 construct: Bought (Sino Biological, cat. 10084-H02H); captured on the SPR chip; also called PDL1-Fc chimeric protein
Outline: (§1)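 Kinetics were fitted with a one-to-one Langmuir model to give apparent ka, kd and KD. Binders at 0.12-90 nM (three-fold series) flowed 3 min, with 10 min dissociation and 3 M MgCl₂ regeneration, on a Biacore T200.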

[1] = biological target: cynomolgus CD137-Fc chimeric protein (cynomolgus monkey, UniProt A9YYE7 24-186); test: SPR
Outline: as §1

[2] = biological target: T2, mouse CD137-Fc chimeric protein (mouse, UniProt P20334 24-187, limits assumed); test: SPR
T2 sequence (looked up): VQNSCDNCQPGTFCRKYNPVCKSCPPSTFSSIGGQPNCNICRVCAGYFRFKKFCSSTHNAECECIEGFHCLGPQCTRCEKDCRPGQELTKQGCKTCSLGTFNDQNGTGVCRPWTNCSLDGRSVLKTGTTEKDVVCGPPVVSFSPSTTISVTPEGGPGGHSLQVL
Outline: as §1

Fc tagged human CD137 = biological target: T3, Fc tagged human CD137 (human, UniProt Q07011 24-186); test: SPR
T3 construct: also called CD137-Fc chimeric protein
Outline: as §1

[3] = biological target: T4, CD137 on Jurkat NFkB reporter cells (human, UniProt Q07011 24-255); test: cell-based or functional assay
[4] = biological target: T4, CD137 on Jurkat NFkB reporter cells; test: cell-based or functional assay; remark: listed apart in the source
[5] = biological target: T4, CD137 on Jurkat NFkB reporter cells; test: cell-based or functional assay; remark: listed apart in the source
[6] = biological target: T4, CD137 on Jurkat NFkB reporter cells; test: cell-based or functional assay; remark: listed apart in the source
[7] = biological target: T5, cynomolgus PDL1-Fc chimeric protein (cynomolgus monkey, UniProt G7PSE7 19-239); test: SPR
T5 construct: PDL1-Fc chimeric protein from different species captured on the chip
Outline: as §1

human PDL1 on cells = human PDL1 on cells (human, UniProt Q9NZQ7 19-290); test: cell-based or functional assay
biotinylated human PDL1 [8] = biological target: T6, biotinylated human PDL1 (human, UniProt Q9NZQ7 19-238, limits assumed, biotinylated); test: competition ELISA B7.1/PDL1
T6 construct: also called biotinylated PDL1
Outline: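 Test mixtures containing biotinylated human PDL1 were pre-incubated 1 h at room temperature, then incubated 1.5 h on the plate under agitation. Bound PDL1 detected with 10 ng/ml streptavidin-polyHRP40 and TMB, stopped at 6 min with HCl, read at 450 nm minus 690 nm. IC₅₀ from 4PL fit.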

biotinylated human PDL1 [9] = biological target: T6, biotinylated human PDL1; test: competition ELISA PD-1/PDL1

koff (Fc tagged human PDL1): 0.00017 s⁻¹
kon (Fc tagged human PDL1): 2.3e+06 M⁻¹ s⁻¹
Kd [1]: 1.3 nM
koff [1]: 0.00033 s⁻¹
kon [1]: 260000 M⁻¹ s⁻¹
Kd [2]: 410 nM
koff [2]: 0.027 s⁻¹
kon [2]: 65000 M⁻¹ s⁻¹
Kd (Fc tagged human CD137): 0.58 nM
koff (Fc tagged human CD137): 0.00027 s⁻¹
kon (Fc tagged human CD137): 310000 M⁻¹ s⁻¹
EC50, NFkB reporter, CHO-PDL1 [3]: 5.75 ng/mL
Top of curve fit, NFkB reporter, CHO-PDL1 [3]: 219
EC50, NFkB reporter, HCC827 without IFNg [4]: 16.1 ng/mL
Top of curve fit, NFkB reporter, HCC827 without IFNg [4]: 123
EC50, NFkB reporter, HCC827 with IFNg [5]: 11.9 ng/mL
Top of curve fit, NFkB reporter, HCC827 with IFNg [5]: 154
IC50 (ng/ml), NFkB reporter, CHO-PD-L1 [6]: 5.75 ng/mL
IC50 (ng/ml), NFkB reporter, HCC827 + IFNg [6]: 11.4 ng/mL
IC50 (ng/ml), NFkB reporter, HCC827 - IFNg [6]: 16.1 ng/mL
max. activation (%), NFkB reporter, CHO-PD-L1 [6]: 219%
max. activation (%), NFkB reporter, HCC827 + IFNg [6]: 154%
max. activation (%), NFkB reporter, HCC827 - IFNg [6]: 123%
rel. IC50 (urelumab/test), NFkB reporter, CHO-PD-L1 [6]: 18.1 fold
rel. IC50 (urelumab/test), NFkB reporter, HCC827 + IFNg [6]: 12.2 fold
rel. IC50 (urelumab/test), NFkB reporter, HCC827 - IFNg [6]: 6.82 fold
B1: PRO1123 (bispecific antibody)
chain: DIQMTQSPSSLSASVGDRVTITCQASQSINDYLAWYQQKPGKAPKLLIYKASTLASGVPSRFSGSGSGTDFTLTISSLQPEDFATYYCQQGYIITDIDNVFGTGTKVTVLGGGGGSQVQLQESGPGLVKPSETLSLTCKVSGFSFSNSYWICWVRQPPGKGLEWIGCTFVGSSDSTYYANWAKGRVTISVDSSKNQVSLKLSSVTAADTAVYFCARHPSDAVYGYANNLWGQGTLVTVSSGGGGSGGGGSGGGGSGGGGSIQMTQSPSSLSASVGDRVTITCQASQSINNVLAWYQQKPGKPPKLLIYRASTLASGVPSRFSGSGSGTDFTLTISSLQPEDFATYYCQSSYGNYGDFGTGTKVTVLGGGGGSQVQLQESGPGLVKPSETLSLTCKVSGFSFSSGYDMCWIRQPPGKGLEWIGCVVAGSVDITYYASWAKGRVTISVDSSKNQFSLKLSSVTAADTAVYYCARKDAYSDAFNLWGQGTLVTVSS
notes: scDb; also called 38-02-A04 sc05 IF scDb-i/33-03-G02 sc01 scDb-o

koff (Fc tagged human PDL1): 0.0002 s⁻¹
kon (Fc tagged human PDL1): 3.1e+06 M⁻¹ s⁻¹
koff [1]: 0.00033 s⁻¹
kon [2]: 200000 M⁻¹ s⁻¹
Kd (Fc tagged human CD137): ≤ 0.015 nM
fold improvement of affinity against PRO885 (Fc tagged human CD137): > 200 fold
koff (Fc tagged human CD137): < 1e-05 s⁻¹
kon (Fc tagged human CD137): 680000 M⁻¹ s⁻¹
EC50, NFkB reporter, CHO-PDL1 [3]: 3.68 ng/mL
Top of curve fit, NFkB reporter, CHO-PDL1 [3]: 229
EC50, NFkB reporter, HCC827 without IFNg [4]: 5.62 ng/mL
Top of curve fit, NFkB reporter, HCC827 without IFNg [4]: 113
EC50, NFkB reporter, HCC827 with IFNg [5]: 4.83 ng/mL
Top of curve fit, NFkB reporter, HCC827 with IFNg [5]: 188
IC50 (ng/ml), NFkB reporter, CHO-PD-L1 [6]: 3.68 ng/mL
IC50 (ng/ml), NFkB reporter, HCC827 + IFNg [6]: 4.83 ng/mL
IC50 (ng/ml), NFkB reporter, HCC827 - IFNg [6]: 5.62 ng/mL
max. activation (%), NFkB reporter, CHO-PD-L1 [6]: 229%
max. activation (%), NFkB reporter, HCC827 + IFNg [6]: 188%
max. activation (%), NFkB reporter, HCC827 - IFNg [6]: 113%
rel. IC50 (urelumab/test), NFkB reporter, CHO-PD-L1 [6]: 23.5 fold
rel. IC50 (urelumab/test), NFkB reporter, HCC827 + IFNg [6]: 22.4 fold
rel. IC50 (urelumab/test), NFkB reporter, HCC827 - IFNg [6]: 19.9 fold
B2: PRO1124 (bispecific antibody)
chain: B1 chain with V140A, V190K, I261L
notes: scDb; also called 38-02-A04 sc06 Full scDb-i/33-03-G02 sc01 scDb-o

Kd (Fc tagged human PDL1): ≤ 0.0017 nM
fold higher affinity against the STR graft of clone 33-03-G02 (Fc tagged human PDL1): ~2 fold
koff (Fc tagged human PDL1): < 2e-05 s⁻¹
kon (Fc tagged human PDL1): 5.9e+06 M⁻¹ s⁻¹
koff [7]: < 1e-05 s⁻¹
kon [7]: 6e+06 M⁻¹ s⁻¹
IC50 (ng/ml), NF-AT potency assay (human PDL1 on cells): 11.1 ng/mL
rel. IC50 (avelumab/test) (human PDL1 on cells): 3.07 fold
IC50 (biotinylated human PDL1 [8]): 6.36 ng/mL
rel. IC50 (IC50 avelumab/IC50 test) (biotinylated human PDL1 [8]): 2.34 fold
IC50 (biotinylated human PDL1 [9]): 0.5 ng/mL
rel. IC50 (IC50 avelumab/IC50 test) (biotinylated human PDL1 [9]): 4.16 fold
B3: PRO997 (scFv)
scFv: DIQMTQSPSSLSASVGDRVTITCQASQSIGTYLAWYQQKPGKAPKLLIYRAFILASGVPSRFSGSGSGTDFTLTISSLQPEDFATYYCQSNFYSDSTTIGPNAFGTGTKVTVLGGGGGSGGGGSGGGGSGGGGSQVQLQESGPGLVKPSETLSLTCKVSGFSFNSDYWIYWIRQPPGKGLEWIGSIYGGSSGNTQYASWAQGRVTISVDSSKNQFSLKLSSVTAADTAVYYCARGYVDYGGATDLWGQGTLVTVSS
notes: also called 37-20-B03 sc01 scFv; 37-20-B03 CDR
